The nature of this series: protein stability index of a GFP-peptide fusion (GPS, HEK-293T) (PSI 1-6); higher = more stable.
Where [1] appears, read: treatment: DMSO, c terminus: a fixed tail appended.
[2] abbreviates: treatment: MLN4924 1 uM, 8 h, c terminus: a fixed tail appended.

± gives the standard deviation.
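Note: 24-mer peptide tiles fused after GFP, lentivirally expressed, FACS-sorted into six equal bins by GFP/DsRed ratio, decoded by Illumina sequencing, PSI is the read-weighted mean bin number.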

In the case of DTSMDGTEPPQNPVTPLGLQNEVP [SERTAD3], the protein stability index is, setting by setting: under setting [1], 5.4 ± 0.19; under setting [2], 5.38 ± 0.34.

Consider DVALALAALDGGRSLEELTRLAFE [LPCAT4], for which the protein stability index came out at 2.06 ± 0.68 under setting [1] and 2.12 ± 0.19 under setting [2].

Take DVKDKETTENENTKFEVRLLRDPA [CHGB]: the protein stability index by setting is: under setting [1], 4.33 ± 0.41; under setting [2], 4.7 ± 0.3.

In the case of DVTLEASRESSKPRAVLKPRRVCV [PPP2R2C], the protein stability index under setting [1] is 3.68 ± 0.1 and the protein stability index under setting [2] amounted to 3.78 ± 0.21.

For the sequence DVVRSLLRRGASVNRTTRTNSTPL [FEM1A], the protein stability index by setting is: under setting [1], 2.75 ± 0.29; under setting [2], 2.65 ± 0.27.

On to DVYRDGTGVVEFVRKEDMTYAVRK [SRSF1], for which the protein stability index was 3.96 ± 0.26 under setting [1] and 4.47 ± 0.18 under setting [2].

Regarding DWVPVESLLRPLNSLAALDLSGIQ [ZER1], the protein stability index was 2.42 ± 0.61 under setting [1] and 2.41 ± 0.49 under setting [2].

In the case of EAAVEALELLGATYVDKKRDLLGA [FEM1A], the protein stability index reads like this: under setting [1], 3.27 ± 0.31; under setting [2], 3.49 ± 0.21.

EADYEDDSKIAFLMQLQDIQYLTE [IQUB] displayed a protein stability index under setting [1] of 3.3 ± 0.2 and a protein stability index under setting [2] of 3.38 ± 0.57.

EAFCHANCSGPAPAAKPDPDGGRA [P3H4] yielded a protein stability index under setting [1] of 4.82 ± 0.15 and a protein stability index under setting [2] of 4.79 ± 0.19.

In the case of EAHFMLQVADINDNPPTFSQVSYF [PCDHGA10], the protein stability index is, setting by setting: under setting [1], 2.34 ± 0.41; under setting [2], 2.33 ± 0.25.

As to EAINFCRGLGSQASTVTEIVKQQD [ACSBG2], the protein stability index reads like this: under setting [1], 4.12 ± 0.11; under setting [2], 4.11 ± 0.18.

As to EASERFAAGYIQCMHEVHTFVSTC [HES6], the protein stability index is, setting by setting: under setting [1], 2.21 ± 0.23; under setting [2], 2 ± 0.36.

EDHNENGHTPLMEAGSAGHVEVAR [ANKRD17] yielded a protein stability index under setting [1] of 5.63 ± 0.12 and a protein stability index under setting [2] of 5.36 ± 0.12.

On to EDPSQQFLQQSLERVYSLQHLDPQ [INTS4], for which the protein stability index stood at 4.18 ± 0.17 under setting [1] and 4.42 ± 0.23 under setting [2].

On to EDQEGSPPETSLPYKWVVEAANLL [MYBL2], for which the protein stability index reads like this: under setting [1], 3.96 ± 0.18; under setting [2], 3.915 ± 0.031.

Regarding EDQGRTRKRKQSGHSPARAGKQRM [DDIT3], the protein stability index runs as follows: under setting [1], 4.96 ± 0.27; under setting [2], 4.96 ± 0.089.

As for EDQYQFSYRAALEYLGSFDHYAT [PTPRD], the protein stability index is, setting by setting: (treatment: DMSO, c terminus: native) 2.61 ± 0.49; (treatment: MLN4924 1 uM, 8 h, c terminus: native) 2.69 ± 0.34.

Turning to EEEPSHVTGREGFPTDAPYPTTLG [ZNF8], the protein stability index by setting is: under setting [1], 5.17 ± 0.14; under setting [2], 5.17 ± 0.14.

EEGESLLCLACSAGYYELAQVLLA [ANKRD17]: the protein stability index was determined as 2.17 ± 0.4 under setting [1] and 2.39 ± 0.25 under setting [2].

Consider EEILTLFCGAPPVTPIIVLSIINF [PHTF1], for which the protein stability index runs as follows: under setting [1], 2.84 ± 0.26; under setting [2], 2.97 ± 0.51.

Consider EELDGLCFKGELPLRAVHINLEEK [PLEKHN1], for which the protein stability index by setting is: under setting [1], 4.41 ± 0.26; under setting [2], 4.44 ± 0.29.

Consider EELKAELVQLEDEITTLRQVLSAK [TPD52L1], for which the protein stability index reads like this: under setting [1], 4.34 ± 0.32; under setting [2], 4.22 ± 0.28.

Take EFYLLELMDCCLIVYHPYRPLLQY [CCNC]: the protein stability index runs as follows: under setting [1], 3.08 ± 1.3; under setting [2], 2.98 ± 0.45.

Turning to EGGVLRGSKLEKGHLRGPEIRDWR [ZSWIM9], the protein stability index runs as follows: under setting [1], 3.8 ± 0.2; under setting [2], 4.02 ± 0.31.

EGSCYQTFRQYCGAACTCHVRNPL [RNF208] yielded a protein stability index under setting [1] of 2.4 ± 0.37 and a protein stability index under setting [2] of 2.6 ± 0.2.

In the case of EGSYRIHVLHHGTGKWYELQDLQV [USP39], the protein stability index reads like this: under setting [1], 2.73 ± 0.69; under setting [2], 2.58 ± 0.77.

EHDRETRMQYAPDLMKRLRFALIP [KLHL14] gave a protein stability index under setting [1] of 2.77 ± 0.26 and a protein stability index under setting [2] of 2.56 ± 0.16.

As to EHRHLNPDTELKRYFGARAILGEQ [TCF25], the protein stability index came to 3.46 ± 0.32 under setting [1] and 3.47 ± 0.54 under setting [2].

The values are drawn from the supplement of paper PMC10567573.
